# Results reported in publication PMC11702627.
# B1: WT 4Ig-B7-H3-meGFP (and WT 4Ig-B7-H3-mCherry as the second copy), Q5ZPR3 29-534 (natural protein)
# chain: LEVQVPEDPVVALVGTDATLCCSFSPEPGFSLAQLNLIWQLTDTKQLVHSFAEGQDQGSAYANRTALFPDLLAQGNASLRLQRVRVADEGSFTCFVSIRDFGSAAVSLQVAAPYSKPSMTLEPNKDLRPGDTVTITCSSYQGYPEAEVFWQDGQGVPLTGNVTTSQMANEQGLFDVHSILRVVLGANGTYSCLVRNPVLQQDAHSSVTITPQRSPTGAVEVQVPEDPVVALVGTDATLRCSFSPEPGFSLAQLNLIWQLTDTKQLVHSFTEGRDQGSAYANRTALFPDLLAQGNASLRLQRVRVADEGSFTCFVSIRDFGSAAVSLQVAAPYSKPSMTLEPNKDLRPGDTVTITCSSYRGYPEAEVFWQDGQGVPLTGNVTTSQMANEQGLFDVHSVLRVVLGANGTYSCLVRNPVLQQDAHGSVTITGQPMTFPPEALWVTVGLSVCLIALLVALAFVCWRKIKQSCEEENAGAEDQDGEGEGSKTALQPLKHSDSKEDDGQEIA
# Biological target: T1, WT 4Ig-B7-H3-meGFP (and WT 4Ig-B7-H3-mCherry as the second copy) (human), Q5ZPR3
# T1 chain: B1 chain
# Assay: FRET or BRET
# Details: remark: other sources report otherwise
binder,measurement,value
B1,abundance of dimeric complexes (1.3 ns lifetime population),65%
same,"dimeric abundance (with MBCD 0.1 ug, 10 minutes)",26%
same,dimeric abundance (without MBCD),48%
same,dimeric lifetime abundance (with Vector-mCherry),56%
